Legend:
[1] = molecular target: FcγRIIIa extracellular domain with C-terminal His tag (human, UniProt P08637 17-208); experiment: SPR (Biacore), both H chains altered; HoCon Ab GpH7-B3/GpL16-k0 = 100
FcγRIa = molecular target: T1, FcγRIa (human, UniProt P12314 16-292); experiment: SPR (Biacore), captured antibody, FcγRIa analyte; relative to GpH7-A5/GpH7-B3/GpL16-k0
T1 construct: extracellular domain; soluble His-tagged extracellular domain expressed in FreeStyle293 cells, used as analyte in Biacore; also called FcgRI; CD64
T1 sequence (P12314 16-292): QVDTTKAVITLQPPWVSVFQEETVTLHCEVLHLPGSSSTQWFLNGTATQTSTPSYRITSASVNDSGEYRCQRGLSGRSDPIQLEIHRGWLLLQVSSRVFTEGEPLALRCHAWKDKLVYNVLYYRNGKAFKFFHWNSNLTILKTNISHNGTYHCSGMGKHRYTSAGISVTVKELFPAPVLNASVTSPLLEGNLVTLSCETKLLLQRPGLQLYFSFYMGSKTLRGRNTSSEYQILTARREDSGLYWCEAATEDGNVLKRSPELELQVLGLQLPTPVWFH

FcγRIIIa extracellular domain with C-terminal His tag, sequence (P08637 17-208): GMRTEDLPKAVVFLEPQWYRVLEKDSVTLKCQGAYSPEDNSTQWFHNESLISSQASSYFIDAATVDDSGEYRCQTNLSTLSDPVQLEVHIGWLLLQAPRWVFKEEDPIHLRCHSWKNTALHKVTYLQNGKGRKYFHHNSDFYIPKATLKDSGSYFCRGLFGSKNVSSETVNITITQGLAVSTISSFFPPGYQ

B1: GpH7-B3 variant A330_05P/GpL16-k0 (antibody, human IgG1, kappa)
heavy: not shown
light: DIVMTQSPLSLPVTPGEPASISCQASESLVHSNRNTYLHWYLQKPGQSPQLLIYKVSNRFSGVPDRFSGSGSGTDFTLKISRVEAEDVGVYYCSQNTHVPPTFGQGTKVEIERTVAAPSVFIFPPSDEQLKSGTASVVCLLNNFYPREAKVQWKVDNALQSGNSQESVTEQDSKDSTYSLSSTLTLSKADYEKHKVYACEVTHQGLSSPVTKSFNRGEC
notes: both H chains altered; also called Ho Ab A330_05P
Ho/Con_3a [1]: 56.6%

B2: GpH7-B3 variant E333_09D/GpL16-k0 (antibody, human IgG1, kappa)
heavy: not shown
light: B1 light
notes: both H chains altered; also called Ho Ab E333_09D
Ho/Con_3a [1]: 109%

B3: GpH7-B3 variant T335_13S/GpL16-k0 (antibody, human IgG1, kappa)
heavy: not shown
light: B1 light
notes: both H chains altered; also called Ho Ab T335_13S
Ho/Con_3a [1]: 97.6%

B4: GpH7-B3 variant G236_15Y/GpL16-k0 (antibody, human IgG1, kappa)
heavy: not shown
light: B1 light
notes: both H chains altered; also called Ho Ab G236_15Y
Ho/Con_3a [1]: 41.6%

B5: GpH7-B3 variant L234_04F/GpL16-k0 (antibody, human IgG1, kappa)
heavy: not shown
light: B1 light
notes: both H chains altered; also called Ho Ab L234_04F
Ho/Con_3a [1]: 49.9%

B6: GpH7-B3 variant H268_02A/GpL16-k0 (antibody, human IgG1, kappa)
heavy: not shown
light: B1 light
notes: both H chains altered; also called Ho Ab H268_02A
Ho/Con_3a [1]: 118%

B7: GpH7-B3 variant E333_13S/GpL16-k0 (antibody, human IgG1, kappa)
heavy: not shown
light: B1 light
notes: both H chains altered; also called Ho Ab E333_13S
Ho/Con_3a [1]: 95.1%

B8: GpH7-B3 variant S337_04F/GpL16-k0 (antibody, human IgG1, kappa)
heavy: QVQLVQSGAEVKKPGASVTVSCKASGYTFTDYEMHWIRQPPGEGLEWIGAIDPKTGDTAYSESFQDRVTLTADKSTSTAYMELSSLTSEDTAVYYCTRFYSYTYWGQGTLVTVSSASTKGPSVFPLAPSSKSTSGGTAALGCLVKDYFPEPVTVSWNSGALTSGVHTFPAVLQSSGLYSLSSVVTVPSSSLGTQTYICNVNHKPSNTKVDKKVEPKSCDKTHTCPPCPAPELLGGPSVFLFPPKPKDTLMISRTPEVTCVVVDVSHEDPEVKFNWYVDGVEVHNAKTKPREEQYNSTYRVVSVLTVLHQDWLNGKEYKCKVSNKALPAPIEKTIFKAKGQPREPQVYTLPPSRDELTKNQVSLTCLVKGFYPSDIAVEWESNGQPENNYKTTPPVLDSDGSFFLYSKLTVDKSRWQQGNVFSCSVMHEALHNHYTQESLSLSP
light: B1 light
notes: both H chains altered; also called Ho Ab S337_04F
Ho/Con_3a [1]: 95.6%

B9: GpH7-B3 variant I336_02A/GpL16-k0 (antibody, human IgG1, kappa)
heavy: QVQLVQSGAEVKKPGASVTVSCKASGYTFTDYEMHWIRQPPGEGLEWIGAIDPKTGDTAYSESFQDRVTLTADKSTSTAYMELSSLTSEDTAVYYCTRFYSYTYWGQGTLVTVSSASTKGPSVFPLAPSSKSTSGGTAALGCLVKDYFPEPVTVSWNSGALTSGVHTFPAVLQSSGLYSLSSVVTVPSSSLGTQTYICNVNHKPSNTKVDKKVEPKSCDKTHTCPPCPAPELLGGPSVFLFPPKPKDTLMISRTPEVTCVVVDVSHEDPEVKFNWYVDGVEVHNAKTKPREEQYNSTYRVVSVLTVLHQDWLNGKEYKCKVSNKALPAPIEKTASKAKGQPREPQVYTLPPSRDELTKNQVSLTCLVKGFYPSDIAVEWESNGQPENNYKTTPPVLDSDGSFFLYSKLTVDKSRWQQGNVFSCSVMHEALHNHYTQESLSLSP
light: B1 light
notes: both H chains altered; also called Ho Ab I336_02A
Ho/Con_3a [1]: 104%

B10: GpH7-B3 variant I336_18N/GpL16-k0 (antibody, human IgG1, kappa)
heavy: not shown
light: B1 light
notes: both H chains altered; also called Ho Ab I336_18N
Ho/Con_3a [1]: 101%

B11: GpH7-B3 variant P271_01G/GpL16-k0 (antibody, human IgG1, kappa)
heavy: not shown
light: B1 light
notes: both H chains altered; also called Ho Ab P271_01G
Ho/Con_3a [1]: 88%

B12: GpH7-B3 variant H268_18N/GpL16-k0 (antibody, human IgG1, kappa)
heavy: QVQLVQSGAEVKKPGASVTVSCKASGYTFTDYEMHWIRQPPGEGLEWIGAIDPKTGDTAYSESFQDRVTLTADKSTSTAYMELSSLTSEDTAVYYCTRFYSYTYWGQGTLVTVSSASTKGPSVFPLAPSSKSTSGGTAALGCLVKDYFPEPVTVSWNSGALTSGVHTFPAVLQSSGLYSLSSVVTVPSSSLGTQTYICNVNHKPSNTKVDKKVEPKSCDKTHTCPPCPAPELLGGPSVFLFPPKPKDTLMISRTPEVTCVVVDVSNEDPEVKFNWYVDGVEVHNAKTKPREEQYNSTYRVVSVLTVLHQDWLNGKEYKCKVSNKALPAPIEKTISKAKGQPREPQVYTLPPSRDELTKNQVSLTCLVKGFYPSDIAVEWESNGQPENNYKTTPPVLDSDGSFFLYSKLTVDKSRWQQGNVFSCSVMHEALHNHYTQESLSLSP
light: B1 light
notes: both H chains altered; also called Ho Ab H268_18N
Ho/Con_3a [1]: 90.3%

B13: GpH7-B3 variant I336_08L/GpL16-k0 (antibody, human IgG1, kappa)
heavy: not shown
light: B1 light
notes: both H chains altered; also called Ho Ab I336_08L
Ho/Con_3a [1]: 95.8%

B14: GpH7-B3 variant S337_20W/GpL16-k0 (antibody, human IgG1, kappa)
heavy: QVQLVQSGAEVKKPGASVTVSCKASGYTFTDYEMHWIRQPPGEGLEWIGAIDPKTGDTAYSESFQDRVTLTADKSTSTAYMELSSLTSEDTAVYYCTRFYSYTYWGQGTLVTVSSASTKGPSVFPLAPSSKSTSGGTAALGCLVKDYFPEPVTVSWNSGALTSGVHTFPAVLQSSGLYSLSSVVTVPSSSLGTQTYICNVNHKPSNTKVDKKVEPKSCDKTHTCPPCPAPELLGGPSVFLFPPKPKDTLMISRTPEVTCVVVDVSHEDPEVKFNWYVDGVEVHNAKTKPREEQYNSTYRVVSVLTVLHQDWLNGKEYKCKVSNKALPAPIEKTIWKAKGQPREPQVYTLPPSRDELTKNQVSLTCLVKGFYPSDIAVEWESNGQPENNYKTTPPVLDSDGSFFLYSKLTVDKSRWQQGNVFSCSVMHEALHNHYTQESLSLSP
light: B1 light
notes: both H chains altered; also called Ho Ab S337_20W
Ho/Con_3a [1]: 87.8%

B15: GpH7-B3 variant E333_03V/GpL16-k0 (antibody, human IgG1, kappa)
heavy: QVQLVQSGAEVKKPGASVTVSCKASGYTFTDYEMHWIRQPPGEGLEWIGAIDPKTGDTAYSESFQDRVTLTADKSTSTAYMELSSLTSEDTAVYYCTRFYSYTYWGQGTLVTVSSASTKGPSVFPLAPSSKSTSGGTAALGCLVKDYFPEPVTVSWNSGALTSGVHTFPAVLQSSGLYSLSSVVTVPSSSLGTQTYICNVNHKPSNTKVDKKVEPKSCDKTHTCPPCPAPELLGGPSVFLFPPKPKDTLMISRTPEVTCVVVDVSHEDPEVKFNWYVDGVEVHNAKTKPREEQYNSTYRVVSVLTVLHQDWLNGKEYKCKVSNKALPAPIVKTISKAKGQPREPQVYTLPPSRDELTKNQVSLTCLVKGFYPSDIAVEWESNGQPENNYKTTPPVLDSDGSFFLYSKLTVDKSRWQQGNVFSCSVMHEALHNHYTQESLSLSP
light: B1 light
notes: both H chains altered; also called Ho Ab E333_03V
Ho/Con_3a [1]: 86.5%

B16: GpH7-B3 variant L234_20W/GpL16-k0 (antibody, human IgG1, kappa)
heavy: not shown
light: B1 light
notes: both H chains altered; also called Ho Ab L234_20W
Ho/Con_3a [1]: 37.1%

B17: GpH7-B3 variant K326_07I/GpL16-k0 (antibody, human IgG1, kappa)
heavy: not shown
light: B1 light
notes: both H chains altered; also called Ho Ab K326_07I
Ho/Con_3a [1]: 134%

B18: GpH7-B3 variant S324_02A/GpL16-k0 (antibody, human IgG1, kappa)
heavy: not shown
light: B1 light
notes: both H chains altered; also called Ho Ab S324_02A
Ho/Con_3a [1]: 99.8%

B19: GpH7-B3 variant I332_01G/GpL16-k0 (antibody, human IgG1, kappa)
heavy: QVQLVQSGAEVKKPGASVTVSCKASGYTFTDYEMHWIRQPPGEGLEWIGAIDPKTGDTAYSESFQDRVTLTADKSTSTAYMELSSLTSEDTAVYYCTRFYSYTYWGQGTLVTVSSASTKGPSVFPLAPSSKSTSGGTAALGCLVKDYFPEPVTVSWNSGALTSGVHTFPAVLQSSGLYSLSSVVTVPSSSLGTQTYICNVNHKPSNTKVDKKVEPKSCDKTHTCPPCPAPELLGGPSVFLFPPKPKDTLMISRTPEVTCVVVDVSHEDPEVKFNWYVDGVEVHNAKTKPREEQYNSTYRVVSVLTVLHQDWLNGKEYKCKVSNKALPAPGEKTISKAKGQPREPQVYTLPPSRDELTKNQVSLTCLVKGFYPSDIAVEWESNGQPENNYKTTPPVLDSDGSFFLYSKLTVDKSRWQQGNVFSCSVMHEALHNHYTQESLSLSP
light: B1 light
notes: both H chains altered; also called Ho Ab I332_01G
Ho/Con_3a [1]: 104%

B20: GpH7-B3 variant A330_07I/GpL16-k0 (antibody, human IgG1, kappa)
heavy: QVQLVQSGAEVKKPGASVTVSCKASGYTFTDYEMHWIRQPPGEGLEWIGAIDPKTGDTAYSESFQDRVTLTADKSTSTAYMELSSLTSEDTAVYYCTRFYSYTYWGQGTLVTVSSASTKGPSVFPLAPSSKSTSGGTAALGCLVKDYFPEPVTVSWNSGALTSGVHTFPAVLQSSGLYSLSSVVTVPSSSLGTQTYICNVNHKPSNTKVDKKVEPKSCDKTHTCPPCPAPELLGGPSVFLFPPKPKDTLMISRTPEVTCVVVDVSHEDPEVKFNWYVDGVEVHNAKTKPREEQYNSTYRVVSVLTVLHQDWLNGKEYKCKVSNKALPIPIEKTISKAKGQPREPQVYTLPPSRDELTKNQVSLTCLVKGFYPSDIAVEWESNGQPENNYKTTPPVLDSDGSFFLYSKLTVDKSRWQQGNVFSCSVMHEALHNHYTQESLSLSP
light: B1 light
notes: both H chains altered; also called Ho Ab A330_07I
Ho/Con_3a [1]: 93%

B21: GpH7-B3 variant P238_09D/GpL16-k0 (antibody, human IgG1, kappa)
heavy: not shown
light: B1 light
notes: both H chains altered; also called Ho Ab P238_09D
Ho/Con_3a [1]: -0.1%

B22: GpH7-B3 variant T335_19Q/GpL16-k0 (antibody, human IgG1, kappa)
heavy: not shown
light: B1 light
notes: both H chains altered; also called Ho Ab T335_19Q
Ho/Con_3a [1]: 97.7%

B23: GpH7-B3 variant L234_07I/GpL16-k0 (antibody, human IgG1, kappa)
heavy: not shown
light: B1 light
notes: both H chains altered; also called Ho Ab L234_07I
Ho/Con_3a [1]: 98.2%

B24: GpH7-B3 variant I332_06M/GpL16-k0 (antibody, human IgG1, kappa)
heavy: not shown
light: B1 light
notes: both H chains altered; also called Ho Ab I332_06M
Ho/Con_3a [1]: 95.4%

B25: GpH7-B3 variant E333_02A/GpL16-k0 (antibody, human IgG1, kappa)
heavy: not shown
light: B1 light
notes: both H chains altered; also called Ho Ab E333_02A
Ho/Con_3a [1]: 93.3%

B26: GpH7-B3 variant S337_15Y/GpL16-k0 (antibody, human IgG1, kappa)
heavy: not shown
light: B1 light
notes: both H chains altered; also called Ho Ab S337_15Y
Ho/Con_3a [1]: 99%

B27: GpH7-B3 variant T335_15Y/GpL16-k0 (antibody, human IgG1, kappa)
heavy: not shown
light: B1 light
notes: both H chains altered; also called Ho Ab T335_15Y
Ho/Con_3a [1]: 91.5%

B28: GpH7-B3 variant V266_08L/GpL16-k0 (antibody, human IgG1, kappa)
heavy: not shown
light: B1 light
notes: both H chains altered; also called Ho Ab V266_08L
Ho/Con_3a [1]: 90.5%

B29: GpH7-B3 variant P238_10E/GpL16-k0 (antibody, human IgG1, kappa)
heavy: not shown
light: B1 light
notes: both H chains altered; also called Ho Ab P238_10E
Ho/Con_3a [1]: 0.8%

B30: GpH7-B3 variant T335_20W/GpL16-k0 (antibody, human IgG1, kappa)
heavy: not shown
light: B1 light
notes: both H chains altered; also called Ho Ab T335_20W
Ho/Con_3a [1]: 91.8%

B31: GpH7-B3 variant E333_04F/GpL16-k0 (antibody, human IgG1, kappa)
heavy: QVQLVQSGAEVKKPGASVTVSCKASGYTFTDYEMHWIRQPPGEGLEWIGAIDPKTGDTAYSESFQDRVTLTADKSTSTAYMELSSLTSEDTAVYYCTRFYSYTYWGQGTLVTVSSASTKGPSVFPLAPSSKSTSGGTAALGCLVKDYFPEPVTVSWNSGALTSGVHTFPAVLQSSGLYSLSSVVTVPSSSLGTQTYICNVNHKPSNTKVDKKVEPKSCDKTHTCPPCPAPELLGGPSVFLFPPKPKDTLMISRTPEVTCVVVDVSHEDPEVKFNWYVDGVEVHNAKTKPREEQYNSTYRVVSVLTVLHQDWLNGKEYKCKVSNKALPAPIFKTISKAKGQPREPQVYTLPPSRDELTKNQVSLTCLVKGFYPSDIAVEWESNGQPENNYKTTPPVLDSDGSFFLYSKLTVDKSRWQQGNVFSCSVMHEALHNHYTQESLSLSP
light: B1 light
notes: both H chains altered; also called Ho Ab E333_04F
Ho/Con_3a [1]: 87.1%

B32: GpH7-B3 variant I336_03V/GpL16-k0 (antibody, human IgG1, kappa)
heavy: not shown
light: B1 light
notes: both H chains altered; also called Ho Ab I336_03V
Ho/Con_3a [1]: 110%

B33: GpH7-B3 variant T335_16H/GpL16-k0 (antibody, human IgG1, kappa)
heavy: not shown
light: B1 light
notes: both H chains altered; also called Ho Ab T335_16H
Ho/Con_3a [1]: 99.5%

B34: GpH7-B3 variant I336_06M/GpL16-k0 (antibody, human IgG1, kappa)
heavy: not shown
light: B1 light
notes: both H chains altered; also called Ho Ab I336_06M
Ho/Con_3a [1]: 107%

B35: GpH7-B3 variant L234_09D/GpL16-k0 (antibody, human IgG1, kappa)
heavy: not shown
light: B1 light
notes: both H chains altered; also called Ho Ab L234_09D
Ho/Con_3a [1]: 52.8%

B36: GpH7-B3 variant S337_14T/GpL16-k0 (antibody, human IgG1, kappa)
heavy: not shown
light: B1 light
notes: both H chains altered; also called Ho Ab S337_14T
Ho/Con_3a [1]: 97.2%

B37: GpH7-B3 variant K334_01G/GpL16-k0 (antibody, human IgG1, kappa)
heavy: not shown
light: B1 light
notes: both H chains altered; also called Ho Ab K334_01G
Ho/Con_3a [1]: 104%

B38: GpH7-B3 variant G236_20W/GpL16-k0 (antibody, human IgG1, kappa)
heavy: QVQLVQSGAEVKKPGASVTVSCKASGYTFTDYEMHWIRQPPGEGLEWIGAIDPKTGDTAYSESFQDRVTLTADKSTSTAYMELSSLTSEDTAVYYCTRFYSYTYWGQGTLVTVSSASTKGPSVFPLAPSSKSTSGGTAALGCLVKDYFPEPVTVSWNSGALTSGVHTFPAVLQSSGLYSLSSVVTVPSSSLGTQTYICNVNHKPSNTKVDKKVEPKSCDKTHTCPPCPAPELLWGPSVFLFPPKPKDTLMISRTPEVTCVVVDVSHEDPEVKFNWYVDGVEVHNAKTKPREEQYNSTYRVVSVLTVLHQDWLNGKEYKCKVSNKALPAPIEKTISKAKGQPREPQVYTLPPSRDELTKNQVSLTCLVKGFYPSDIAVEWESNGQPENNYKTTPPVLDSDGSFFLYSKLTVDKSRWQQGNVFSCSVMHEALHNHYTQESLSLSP
light: B1 light
notes: both H chains altered; also called Ho Ab G236_20W
Ho/Con_3a [1]: 58.3%

B39: GpH7-B3 variant E333_20W/GpL16-k0 (antibody, human IgG1, kappa)
heavy: not shown
light: B1 light
notes: both H chains altered; also called Ho Ab E333_20W
Ho/Con_3a [1]: 90.9%

B40: GpH7-B3 variant K326_08L/GpL16-k0 (antibody, human IgG1, kappa)
heavy: not shown
light: B1 light
notes: both H chains altered; also called Ho Ab K326_08L
Ho/Con_3a [1]: 114%

B41: GpH7-B3 variant L234_15Y/GpL16-k0 (antibody, human IgG1, kappa)
heavy: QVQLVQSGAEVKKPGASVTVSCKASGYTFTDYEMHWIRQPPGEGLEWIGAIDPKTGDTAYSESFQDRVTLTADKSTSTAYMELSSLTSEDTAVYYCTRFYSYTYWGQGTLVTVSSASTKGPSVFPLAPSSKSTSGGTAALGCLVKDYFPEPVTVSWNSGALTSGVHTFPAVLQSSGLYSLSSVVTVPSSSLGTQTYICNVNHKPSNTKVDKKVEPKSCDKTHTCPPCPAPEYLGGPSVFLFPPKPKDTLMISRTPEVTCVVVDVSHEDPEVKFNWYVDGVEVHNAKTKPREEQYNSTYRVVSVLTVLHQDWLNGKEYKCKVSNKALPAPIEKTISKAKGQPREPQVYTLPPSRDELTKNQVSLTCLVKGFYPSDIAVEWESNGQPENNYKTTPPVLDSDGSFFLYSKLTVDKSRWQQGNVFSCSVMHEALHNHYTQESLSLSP
light: B1 light
notes: both H chains altered; also called Ho Ab L234_15Y
Ho/Con_3a [1]: 64.7%

B42: GpH7-A5/GpH7-B3 variant Y300_14T/GpL16-k0 (antibody, human IgG1, kappa)
heavy 1: not shown
heavy 2: not shown
light: B1 light
notes: heterodimerized IgG1, mutation in one H chain only; also called He Ab
He/Con_1a (FcγRIa): 112 relative, control = 100

B43: GpH7-A5/GpH7-B3 variant Y300_03V/GpL16-k0 (antibody, human IgG1, kappa)
heavy 1: not shown
heavy 2: not shown
light: B1 light
notes: as for B42
He/Con_1a (FcγRIa): 117 relative, control = 100

B44: GpH7-A5/GpH7-B3 variant Y300_11K/GpL16-k0 (antibody, human IgG1, kappa)
heavy 1: not shown
heavy 2: not shown
light: B1 light
notes: as for B42
He/Con_1a (FcγRIa): 107 relative, control = 100

B45: GpH7-A5/GpH7-B3 variant Y300_13S/GpL16-k0 (antibody, human IgG1, kappa)
heavy 1: not shown
heavy 2: not shown
light: B1 light
notes: as for B42
He/Con_1a (FcγRIa): 111 relative, control = 100

B46: GpH7-A5/GpH7-B3 variant Y300_06M/GpL16-k0 (antibody, human IgG1, kappa)
heavy 1: not shown
heavy 2: not shown
light: B1 light
notes: as for B42
He/Con_1a (FcγRIa): 112 relative, control = 100

B47: GpH7-A5/GpH7-B3 variant Y296_11K/GpL16-k0 (antibody, human IgG1, kappa)
heavy 1: not shown
heavy 2: not shown
light: B1 light
notes: as for B42
He/Con_1a (FcγRIa): 105 relative, control = 100

B48: GpH7-A5/GpH7-B3 variant Y296_06M/GpL16-k0 (antibody, human IgG1, kappa)
heavy 1: not shown
heavy 2: not shown
light: B1 light
notes: as for B42
He/Con_1a (FcγRIa): 104 relative, control = 100

B49: GpH7-A5/GpH7-B3 variant Y300_08L/GpL16-k0 (antibody, human IgG1, kappa)
heavy 1: not shown
heavy 2: not shown
light: B1 light
notes: as for B42
He/Con_1a (FcγRIa): 113 relative, control = 100

B50: GpH7-A5/GpH7-B3 variant Y296_16H/GpL16-k0 (antibody, human IgG1, kappa)
heavy 1: not shown
heavy 2: not shown
light: B1 light
notes: as for B42
He/Con_1a (FcγRIa): 106 relative, control = 100

B51: GpH7-A5/GpH7-B3 variant Y296_20W/GpL16-k0 (antibody, human IgG1, kappa)
heavy 1: not shown
heavy 2: not shown
light: B1 light
notes: as for B42
He/Con_1a (FcγRIa): 111 relative, control = 100

B52: GpH7-A5/GpH7-B3 variant Y300_02A/GpL16-k0 (antibody, human IgG1, kappa)
heavy 1: not shown
heavy 2: not shown
light: B1 light
notes: as for B42
He/Con_1a (FcγRIa): 112 relative, control = 100

B53: GpH7-A5/GpH7-B3 variant Y296_12R/GpL16-k0 (antibody, human IgG1, kappa)
heavy 1: not shown
heavy 2: not shown
light: B1 light
notes: as for B42
He/Con_1a (FcγRIa): 106 relative, control = 100

B54: GpH7-A5/GpH7-B3 variant Y300_19Q/GpL16-k0 (antibody, human IgG1, kappa)
heavy 1: not shown
heavy 2: not shown
light: B1 light
notes: as for B42
He/Con_1a (FcγRIa): 112 relative, control = 100

B55: GpH7-A5/GpH7-B3 variant Y300_20W/GpL16-k0 (antibody, human IgG1, kappa)
heavy 1: not shown
heavy 2: not shown
light: B1 light
notes: as for B42
He/Con_1a (FcγRIa): 112 relative, control = 100

From patent US20150344570A1 (published 2015)
